Measurements published in paper doi:10.1101/2020.02.29.971473.

Molecular target: human PCNA, purified (immobilised on the GLC chip) (human), P12004
Assay: SPR
Settings: remark: other sources report otherwise

Sequence of human PCNA, purified (immobilised on the GLC chip) (human), P12004 (P12004 whole entry): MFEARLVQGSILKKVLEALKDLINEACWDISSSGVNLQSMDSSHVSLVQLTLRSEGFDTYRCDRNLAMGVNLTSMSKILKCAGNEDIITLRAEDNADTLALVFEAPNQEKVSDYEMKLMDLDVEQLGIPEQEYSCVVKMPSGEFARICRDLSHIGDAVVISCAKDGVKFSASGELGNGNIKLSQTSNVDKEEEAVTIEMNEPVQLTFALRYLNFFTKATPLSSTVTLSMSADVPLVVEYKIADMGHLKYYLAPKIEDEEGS

Kd: 100 nM | response units: 90 RU
B1: p125 (PolD1), catalytic subunit of human DNA polymerase delta, purified, P28340 1-1107 (natural protein)
chain: MDGKRRPGPGPGVPPKRARGGLWDDDDAPRPSQFEEDLALMEEMEAEHRLQEQEEEELQSVLEGVADGQVPPSAIDPRWLRPTPPALDPQTEPLIFQQLEIDHYVGPAQPVPGGPPPSRGSVPVLRAFGVTDEGFSVCCHIHGFAPYFYTPAPPGFGPEHMGDLQRELNLAISRDSRGGRELTGPAVLAVELCSRESMFGYHGHGPSPFLRITVALPRLVAPARRLLEQGIRVAGLGTPSFAPYEANVDFEIRFMVDTDIVGCNWLELPAGKYALRLKEKATQCQLEADVLWSDVVSHPPEGPWQRIAPLRVLSFDIECAGRKGIFPEPERDPVIQICSLGLRWGEPEPFLRLALTLRPCAPILGAKVQSYEKEEDLLQAWSTFIRIMDPDVITGYNIQNFDLPYLISRAQTLKVQTFPFLGRVAGLCSNIRDSSFQSKQTGRRDTKVVSMVGRVQMDMLQVLLREYKLRSYTLNAVSFHFLGEQKEDVQHSIITDLQNGNDQTRRRLAVYCLKDAYLPLRLLERLMVLVNAVEMARVTGVPLSYLLSRGQQVKVVSQLLRQAMHEGLLMPVVKSEGGEDYTGATVIEPLKGYYDVPIATLDFSSLYPSIMMAHNLCYTTLLRPGTAQKLGLTEDQFIRTPTGDEFVKTSVRKGLLPQILENLLSARKRAKAELAKETDPLRRQVLDGRQLALKVSANSVYGFTGAQVGKLPCLEISQSVTGFGRQMIEKTKQLVESKYTVENGYSTSAKVVYGDTDSVMCRFGVSSVAEAMALGREAADWVSGHFPSPIRLEFEKVYFPYLLISKKRYAGLLFSSRPDAHDRMDCKGLEAVRRDNCPLVANLVTASLRRLLIDRDPEGAVAHAQDVISDLLCNRIDISQLVITKELTRAASDYAGKQAHVELAERMRKRDPGSAPSLGDRVPYVIISAAKGVAAYMKSEDPLFVLEHSLPIDTQYYLEQQLAKPLLRIFEPILGEGRAEAVLLRGDHTRCKTVLTGKVGGLLAFAKRRNCCIGCRTVLSHQGAVCEFCQPRESELYQKEVSHLNALEERFSRLWTQCQRCQGSLHEDVICTSRDCPIFYMRKKVRKDLEDQEQLLRRFGPPGPEAW
